First the molecules themselves.
B1: Trinucleotide repeat-containing gene 6C protein (Homo sapiens), Q9HCJ0 (parent)
chain: MEEKKKKKQEEKKKKEGAQKKAADQKTKVPEPTKTCSSQPQPAGTSTSTSTSTISSSNNGKRASASGQQPAASRYLPREVPPRFRQQEQKQLLKRGQPLPTGTLTSVSPTQGAGPAGVSPPPLPGAGTQHHPSKLQPDLSHSGLADHYENSHWGQQPTYRSEANCSWDKVIIDRTDKEAWPSITGTETESASECTTDTDSASNCGSENSSMATGSAQGNFTGHTKKTNGNNGTNGALVQSPSNQSALGAGGANSNGSAARVWGVATGSSSGLAHCSVSGGDGKMDTMIGDGRSQNCWGASNSNAGINLNLNPNANPAAWPVLGHEGTVATGNPSSICSPVSAIGQNMGNQNGNPTGTLGAWGNLLPQESTEPQTSTSQNVSFSAQPQNLNTDGPNNTNPMNSSPNPINAMQTNGLPNWGMAVGMGAIIPPHLQGLPGANGSSVSQVSGGSAEGISNSVWGLSPGNPATGNSNSGFSQGNGDTVNSALSAKQNGSSSAVQKEGSGGNAWDSGPPAGPGILAWGRGSGNNGVGNIHSGAWGHPSRSTSNGVNGEWGKPPNQHSNSDINGKGSTGWESPSVTSQNPTVQPGGEHMNSWAKAASSGTTASEGSSDGSGNHNEGSTGREGTGEGRRRDKGIIDQGHIQLPRNDLDPRVLSNTGWGQTPVKQNTAWEFEESPRSERKNDNGTEAWGCAATQASNSGGKNDGSIMNSTNTSSVSGWVNAPPAAVPANTGWGDSNNKAPSGPGVWGDSISSTAVSTAAAAKSGHAWSGAANQEDKSPTWGEPPKPKSQHWGDGQRSNPAWSAGGGDWADSSSVLGHLGDGKKNGSGWDADSNRSGSGWNDTTRSGNSGWGNSTNTKANPGTNWGETLKPGPQQNWASKPQDNNVSNWGGAASVKQTGTGWIGGPVPVKQKDSSEATGWEEPSPPSIRRKMEIDDGTSAWGDPSNYNNKTVNMWDRNNPVIQSSTTTNTTTTTTTTTSNTTHRVETPPPHQAGTQLNRSPLLGPVSSGWGEMPNVHSKTENSWGEPSSPSTLVDNGTAAWGKPPSSGSGWGDHPAEPPVAFGRAGAPVAASALCKPASKSMQEGWGSGGDEMNLSTSQWEDEEGDVWNNAASQESTSSCSSWGNAPKKGLQKGMKTSGKQDEAWIMSRLIKQLTDMGFPREPAEEALKSNNMNLDQAMSALLEKKVDVDKRGLGVTDHNGMAAKPLGCRPPISKESSVDRPTFLDKDGGLVEEPTPSPFLPSPSLKLPLSHSALPSQALGGIASGLGMQNLNSSRQIPSGNLGMFGNSGAAQARTMQQPPQPPVQPLNSSQPSLRAQVPQFLSPQVQAQLLQFAAKNIGLNPALLTSPINPQHMTMLNQLYQLQLAYQRLQIQQQMLQAQRNVSGSMRQQEQQVARTITNLQQQIQQHQRQLAQALLVKQPPPPPPPPHLSLHPSAGKSAMDSFPSHPQTPGLPDLQTKEQQSSPNTFAPYPLAGLNPNMNVNSMDMTGGLSVKDPSQSQSRLPQWTHPNSMDNLPSAASPLEQNPSKHGAIPGGLSIGPPGKSSIDDSYGRYDLIQNSESPASPPVAVPHSWSRAKSDSDKISNGSSINWPPEFHPGVPWKGLQNIDPENDPDVTPGSVPTGPTINTTIQDVNRYLLKSGGSSPPSSQNATLPSSSAWPLSASGYSSSFSSIASAPSVAGKLSDIKSTWSSGPTSHTQASLSHELWKVPRNSTAPTRPPPGLTNPKPSSTWGASPLGWTSSYSSGSAWSTDTSGRTSSWLVLRNLTPQIDGSTLRTLCLQHGPLITFHLNLTQGNAVVRYSSKEEAAKAQKSLHMCVLGNTTILAEFAGEEEVNRFLAQGQALPPTSSWQSSSASSQPRLSAAGSSHGLVRSDAGHWNAPCLGGKGSSELLWGGVPQYSSSLWGPPSADDSRVIGSPTPLTTLLPGDLLSGESL
B2: Trinucleotide repeat-containing gene 6C protein (Homo sapiens), Q9HCJ0-1 (parent)
chain: MATGSAQGNFTGHTKKTNGNNGTNGALVQSPSNQSALGAGGANSNGSAARVWGVATGSSSGLAHCSVSGGDGKMDTMIGDGRSQNCWGASNSNAGINLNLNPNANPAAWPVLGHEGTVATGNPSSICSPVSAIGQNMGNQNGNPTGTLGAWGNLLPQESTEPQTSTSQNVSFSAQPQNLNTDGPNNTNPMNSSPNPINAMQTNGLPNWGMAVGMGAIIPPHLQGLPGANGSSVSQVSGGSAEGISNSVWGLSPGNPATGNSNSGFSQGNGDTVNSALSAKQNGSSSAVQKEGSGGNAWDSGPPAGPGILAWGRGSGNNGVGNIHSGAWGHPSRSTSNGVNGEWGKPPNQHSNSDINGKGSTGWESPSVTSQNPTVQPGGEHMNSWAKAASSGTTASEGSSDGSGNHNEGSTGREGTGEGRRRDKGIIDQGHIQLPRNDLDPRVLSNTGWGQTPVKQNTAWEFEESPRSERKNDNGTEAWGCAATQASNSGGKNDGSIMNSTNTSSVSGWVNAPPAAVPANTGWGDSNNKAPSGPGVWGDSISSTAVSTAAAAKSGHAWSGAANQEDKSPTWGEPPKPKSQHWGDGQRSNPAWSAGGGDWADSSSVLGHLGDGKKNGSGWDADSNRSGSGWNDTTRSGNSGWGNSTNTKANPGTNWGETLKPGPQQNWASKPQDNNVSNWGGAASVKQTGTGWIGGPVPVKQKDSSEATGWEEPSPPSIRRKMEIDDGTSAWGDPSNYNNKTVNMWDRNNPVIQSSTTTNTTTTTTTTTSNTTHRVETPPPHQAGTQLNRSPLLGPGRKVSSGWGEMPNVHSKTENSWGEPSSPSTLVDNGTAAWGKPPSSGSGWGDHPAEPPVAFGRAGAPVAASALCKPASKSMQEGWGSGGDEMNLSTSQWEDEEGDVWNNAASQESTSSCSSWGNAPKKGLQKGMKTSGKQDEAWIMSRLIKQLTDMGFPREPAEEALKSNNMNLDQAMSALLEKKVDVDKRGLGVTDHNGMAAKPLGCRPPISKESSVDRPTFLDKDGGLVEEPTPSPFLPSPSLKLPLSHSALPSQALGGIASGLGMQNLNSSRQIPSGNLGMFGNSGAAQARTMQQPPQPPVQPLNSSQPSLRAQVPQFLSPQVQAQLLQFAAKNIGLNPALLTSPINPQHMTMLNQLYQLQLAYQRLQIQQQMLQAQRNVSGSMRQQEQQVARTITNLQQQIQQHQRQLAQALLVKQPPPPPPPPHLSLHPSAGKSAMDSFPSHPQTPGLPDLQTKEQQSSPNTFAPYPLAGLNPNMNVNSMDMTGGLSVKDPSQSQSRLPQWTHPNSMDNLPSAASPLEQNPSKHGAIPGGLSIGPPGKSSIDDSYGRYDLIQNSESPASPPVAVPHSWSRAKSDSDKISNGSSINWPPEFHPGVPWKGLQNIDPENDPDVTPGSVPTGPTINTTIQDVNRYLLKSGGKLSDIKSTWSSGPTSHTQASLSHELWKVPRNSTAPTRPPPGLTNPKPSSTWGASPLGWTSSYSSGSAWSTDTSGRTSSWLVLRNLTPQIDGSTLRTLCLQHGPLITFHLNLTQGNAVVRYSSKEEAAKAQKSLHMCVLGNTTILAEFAGEEEVNRFLAQGQALPPTSSWQSSSASSQPRLSAAGSSHGLVRSDAGHWNAPCLGGKGSSELLWGGVPQYSSSLWGPPSADDSRVIGSPTPLTTLLPGDLLSGESL

3 variants from IntAct's records for PubMed 20098421 can be followed below.

In one assay the parent is B1. To be noted: with pabp1_human PABPC1, P11940.
Target sequence in this assay (P11940 whole entry): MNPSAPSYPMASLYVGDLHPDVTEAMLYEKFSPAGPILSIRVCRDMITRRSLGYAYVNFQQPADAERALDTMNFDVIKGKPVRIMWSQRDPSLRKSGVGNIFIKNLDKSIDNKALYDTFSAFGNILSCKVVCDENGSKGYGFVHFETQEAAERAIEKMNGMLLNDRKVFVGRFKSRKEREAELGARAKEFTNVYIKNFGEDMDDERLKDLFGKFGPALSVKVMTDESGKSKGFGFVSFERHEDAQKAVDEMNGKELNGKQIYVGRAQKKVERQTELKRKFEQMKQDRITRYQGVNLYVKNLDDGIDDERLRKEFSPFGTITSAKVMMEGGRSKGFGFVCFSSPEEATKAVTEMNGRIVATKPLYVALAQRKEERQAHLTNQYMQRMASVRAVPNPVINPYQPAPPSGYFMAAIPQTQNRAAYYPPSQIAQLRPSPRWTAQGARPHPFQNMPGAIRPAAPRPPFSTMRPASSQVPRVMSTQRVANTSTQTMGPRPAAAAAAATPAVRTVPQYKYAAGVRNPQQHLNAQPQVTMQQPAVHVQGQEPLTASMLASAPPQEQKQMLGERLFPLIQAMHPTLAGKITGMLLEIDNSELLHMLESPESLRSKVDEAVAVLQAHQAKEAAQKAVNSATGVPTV
As to W1602A;K1603A, the “effect of a mutation on the interaction” value is given as “disrupting interaction”.
Still for that read-out and setting: the result for E1595A;F1596A reads “disrupting interaction”.

Another assay covers variants of B2. To be noted: with pabp1_human PABPC1, P11940.
Target sequence in this assay (P11940 whole entry): as above
E1388A;F1389A;W1395A;K1396A: the “effect of a mutation on the interaction” value is recorded as “disrupting interaction”.
